Measured values taken from PMC6151440.

Experiments:
Experiment in all cases: NMR
Conditions in all cases: folded, free wild-type ubiquitin
Asp21 = Asp21 (UniProt position 21, EVEPSDTIENV)
Asp32 = Asp32 (UniProt position 32, KAKIQDKEGIP)
Asp39 = Asp39 (UniProt position 39, EGIPPDQQRLI)
Asp58 = Asp58 (UniProt position 58, GRTLSDYNIQK)
Glu16 = Glu16 (UniProt position 16, KTITLEVEPSD)
Glu18 = Glu18 (UniProt position 18, ITLEVEPSDTI)
Glu34 = Glu34 (UniProt position 34, KIQDKEGIPPD)
Glu51 = Glu51 (UniProt position 51, AGKQLEDGRTL)
Glu64 = Glu64 (UniProt position 64, YNIQKESTLHL)
[1] = 298 K, not stated (20 mM d-Tris-HCl buffer, no added salt stated), 20 mM d-Tris-HCl, 1-1.5 mM
[2] = 303 K, 100 mM KCl, cited from earlier work

In the case of “Ubiquitin (wild type) (not stated (Homo sapiens inferred))”, the pKa (Asp21; [1]) is listed as 2.98 ± 0.03, the pKa (Asp21; [2]) is listed as 3.1 and the pKa (Asp32; [1]) is listed as 3.68 ± 0.03. The pKa (Asp32; [2]) was 3.8, the pKa (Asp39; [1]) was 3.52 ± 0.02 and the pKa (Asp39; [2]) was 3.6. For the same substance, the pKa (Asp58; [1]) was 3.47 ± 0.02, the pKa (Asp58; [2]) was 3.7 and the pKa (Glu16; [1]) was 4.07 ± 0.02. The pKa (Glu16; [2]) was 3.9, the pKa (Glu18; [1]) was 4.26 ± 0.03 and the pKa (Glu18; [2]) was 4.3. For the same substance, the pKa (Glu34; [1]) was 4.16 ± 0.03, the pKa (Glu34; [2]) was 4.5 and the pKa (Glu51; [1]) was 3.69 ± 0.02. For the same substance, the pKa (Glu51; [2]) was 3.8, the pKa (Glu64; [1]) was 4.26 ± 0.02 and the pKa (Glu64; [2]) was 4.5.
